The results in this text go back to patent US20160375155A1 (COLLAGEN MEDICAL, published 2016).

B1: Compound ID No. 4 (peptide)
peptide: KWHCYTKFPHHYCVY[Bip]-NH2
modifications: disulfide 4-13; not fully specified (residues 1, 7, N-terminus); printed as K-W-H-C-Y-T-K-F-P-H-H-Y-C-V-Y-Bip; also: GdDOTAGA on N-terminal amine or lysine epsilon amino groups
notes: Tested as the Gd(III)-DOTAGA chelate conjugate of the cyclic peptide; also called CMPD ID 4
B2: Compound ID No. 3 (peptide)
peptide: GdDOTAGA-K(GdDOTAGA)YWHCTTK(GdDOTAGA)FPHHYCLY[Bip]-NH2
modifications: disulfide 5-14
notes: Tested as the Gd(III)-DOTAGA chelate conjugate of the cyclic peptide; also called CMPD ID 3
B3: Compound ID No. 2 (peptide)
peptide: GdDOTAGA-K(GdDOTAGA)WHCTTK(GdDOTAGA)FPHHYCLY[Bip]-NH2
modifications: disulfide 4-13
notes: Tested as the Gd(III)-DOTAGA chelate conjugate of the cyclic peptide; also called CMPD ID 2
B4: Compound ID No. 1 (peptide)
peptide: GKWHCTTKFPHHYCLY
modifications: Bip (L-4,4'-biphenylalanine) at position 17; C-terminal amide (NH2); cyclized through Cysteine-Cysteine disulfide bond (Cys5-Cys14); GdDOTAGA coupled by amide bonds to the primary amines (N-terminal amine and lysine epsilon amino groups)
notes: Tested as the Gd(III)-DOTAGA chelate conjugate of the cyclic peptide; also called CMPD ID 1; Comp ID No. 1

Bridge positions count the residues as written; N and C are the ends. Square brackets hold non-standard residues; d marks the D form. Ends that are not written are not given here. GdDOTAGA = Gd(III)-DOTAGA chelate, amide-linked; Bip = N[C@@H](Cc1ccc(-c2ccccc2)cc1)C(=O)O

T3 sequence (Q9XSJ7 158-1214, chain 1 of 2): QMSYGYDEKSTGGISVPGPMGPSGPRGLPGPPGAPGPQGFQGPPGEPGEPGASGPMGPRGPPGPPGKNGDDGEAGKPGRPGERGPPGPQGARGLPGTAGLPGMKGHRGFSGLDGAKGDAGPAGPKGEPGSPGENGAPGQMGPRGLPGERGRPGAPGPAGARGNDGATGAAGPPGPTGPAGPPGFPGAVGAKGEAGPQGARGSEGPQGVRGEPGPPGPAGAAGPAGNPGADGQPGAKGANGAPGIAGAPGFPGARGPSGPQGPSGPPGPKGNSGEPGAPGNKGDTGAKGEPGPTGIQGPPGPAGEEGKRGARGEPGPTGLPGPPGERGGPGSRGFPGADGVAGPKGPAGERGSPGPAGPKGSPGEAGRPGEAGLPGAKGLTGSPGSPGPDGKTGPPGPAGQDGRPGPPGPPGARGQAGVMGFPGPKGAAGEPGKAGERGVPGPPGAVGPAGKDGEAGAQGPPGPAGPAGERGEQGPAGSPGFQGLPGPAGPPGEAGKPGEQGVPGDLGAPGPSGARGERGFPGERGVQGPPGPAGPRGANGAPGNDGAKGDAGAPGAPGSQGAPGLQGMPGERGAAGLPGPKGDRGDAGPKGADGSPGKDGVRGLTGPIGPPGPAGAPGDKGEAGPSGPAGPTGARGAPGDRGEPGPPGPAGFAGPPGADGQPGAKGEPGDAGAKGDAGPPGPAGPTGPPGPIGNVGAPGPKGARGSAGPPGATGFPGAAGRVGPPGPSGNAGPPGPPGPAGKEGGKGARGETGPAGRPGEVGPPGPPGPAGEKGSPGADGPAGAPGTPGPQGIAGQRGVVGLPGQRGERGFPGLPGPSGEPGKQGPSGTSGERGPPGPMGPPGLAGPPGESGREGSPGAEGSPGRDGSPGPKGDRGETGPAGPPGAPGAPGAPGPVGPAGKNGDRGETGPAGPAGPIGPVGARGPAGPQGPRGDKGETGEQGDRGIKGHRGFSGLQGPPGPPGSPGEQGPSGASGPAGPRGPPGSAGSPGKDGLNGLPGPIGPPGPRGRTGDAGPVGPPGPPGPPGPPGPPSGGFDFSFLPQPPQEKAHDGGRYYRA
T3 sequence (O46392 80-1119, chain 2 of 2): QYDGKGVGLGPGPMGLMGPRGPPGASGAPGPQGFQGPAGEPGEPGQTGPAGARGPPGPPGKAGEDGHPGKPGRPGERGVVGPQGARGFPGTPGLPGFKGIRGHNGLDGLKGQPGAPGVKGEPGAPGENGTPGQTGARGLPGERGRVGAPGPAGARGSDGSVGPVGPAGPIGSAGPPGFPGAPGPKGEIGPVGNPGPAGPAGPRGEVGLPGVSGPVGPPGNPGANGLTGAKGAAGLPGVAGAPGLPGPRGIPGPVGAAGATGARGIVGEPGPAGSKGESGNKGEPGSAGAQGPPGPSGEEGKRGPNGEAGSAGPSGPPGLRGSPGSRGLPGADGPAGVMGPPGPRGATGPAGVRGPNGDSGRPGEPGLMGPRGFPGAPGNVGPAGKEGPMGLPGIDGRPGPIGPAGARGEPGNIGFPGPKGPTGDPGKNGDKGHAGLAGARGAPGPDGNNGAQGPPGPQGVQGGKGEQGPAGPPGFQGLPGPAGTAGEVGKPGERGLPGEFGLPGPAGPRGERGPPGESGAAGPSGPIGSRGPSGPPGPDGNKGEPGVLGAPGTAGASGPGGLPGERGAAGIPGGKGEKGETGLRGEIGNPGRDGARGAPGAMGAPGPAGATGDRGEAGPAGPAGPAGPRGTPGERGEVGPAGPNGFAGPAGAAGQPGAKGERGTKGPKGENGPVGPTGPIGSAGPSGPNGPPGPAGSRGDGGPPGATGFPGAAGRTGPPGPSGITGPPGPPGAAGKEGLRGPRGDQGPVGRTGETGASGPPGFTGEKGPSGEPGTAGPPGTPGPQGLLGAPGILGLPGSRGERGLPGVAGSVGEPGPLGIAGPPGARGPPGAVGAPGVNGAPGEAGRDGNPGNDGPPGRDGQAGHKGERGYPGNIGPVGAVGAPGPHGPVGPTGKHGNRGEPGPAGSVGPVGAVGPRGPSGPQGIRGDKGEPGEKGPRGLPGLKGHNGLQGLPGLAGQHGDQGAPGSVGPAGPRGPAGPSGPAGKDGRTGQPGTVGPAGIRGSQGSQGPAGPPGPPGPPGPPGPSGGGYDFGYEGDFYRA

For the first assay, the target named is T1, human type I collagen (VitroCol solution, Advanced Biomatrix, cat#5007-A) (human, UniProt P02452 179-1192; P08123 91-1104, limits assumed).
T1 construct: In the assay the collagen was gelled and dried as a fibril film in microtiter wells; also called human collagen; Human Collagen Type I
T1 sequence (P02452 179-1192 limits assumed, chain 1 of 2): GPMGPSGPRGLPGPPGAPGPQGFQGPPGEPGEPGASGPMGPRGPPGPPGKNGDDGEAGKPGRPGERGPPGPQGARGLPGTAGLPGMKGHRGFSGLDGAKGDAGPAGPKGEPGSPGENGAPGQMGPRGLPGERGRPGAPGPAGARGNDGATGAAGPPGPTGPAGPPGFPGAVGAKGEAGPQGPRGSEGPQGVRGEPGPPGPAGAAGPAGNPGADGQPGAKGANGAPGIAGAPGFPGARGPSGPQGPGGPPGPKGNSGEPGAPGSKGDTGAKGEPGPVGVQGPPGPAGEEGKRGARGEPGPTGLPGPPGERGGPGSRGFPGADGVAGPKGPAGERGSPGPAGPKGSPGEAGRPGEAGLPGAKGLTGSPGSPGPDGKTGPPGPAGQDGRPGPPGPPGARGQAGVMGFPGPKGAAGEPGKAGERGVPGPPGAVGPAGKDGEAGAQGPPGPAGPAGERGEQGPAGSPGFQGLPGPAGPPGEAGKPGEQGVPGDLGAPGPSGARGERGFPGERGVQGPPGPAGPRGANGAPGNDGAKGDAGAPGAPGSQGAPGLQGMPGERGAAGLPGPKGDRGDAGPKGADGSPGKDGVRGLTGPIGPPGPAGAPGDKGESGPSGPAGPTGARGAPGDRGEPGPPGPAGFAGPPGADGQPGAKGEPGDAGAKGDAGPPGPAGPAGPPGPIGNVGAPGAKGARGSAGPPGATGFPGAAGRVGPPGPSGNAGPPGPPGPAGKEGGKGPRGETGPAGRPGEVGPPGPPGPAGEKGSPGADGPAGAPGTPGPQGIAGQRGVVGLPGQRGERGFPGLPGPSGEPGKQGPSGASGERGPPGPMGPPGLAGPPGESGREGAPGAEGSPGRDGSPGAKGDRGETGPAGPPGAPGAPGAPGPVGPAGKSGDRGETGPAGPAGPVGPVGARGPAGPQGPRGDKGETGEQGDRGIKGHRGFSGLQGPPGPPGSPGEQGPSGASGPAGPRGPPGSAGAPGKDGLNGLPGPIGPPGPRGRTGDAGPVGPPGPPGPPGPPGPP
T1 sequence (P08123 91-1104 limits assumed, chain 2 of 2): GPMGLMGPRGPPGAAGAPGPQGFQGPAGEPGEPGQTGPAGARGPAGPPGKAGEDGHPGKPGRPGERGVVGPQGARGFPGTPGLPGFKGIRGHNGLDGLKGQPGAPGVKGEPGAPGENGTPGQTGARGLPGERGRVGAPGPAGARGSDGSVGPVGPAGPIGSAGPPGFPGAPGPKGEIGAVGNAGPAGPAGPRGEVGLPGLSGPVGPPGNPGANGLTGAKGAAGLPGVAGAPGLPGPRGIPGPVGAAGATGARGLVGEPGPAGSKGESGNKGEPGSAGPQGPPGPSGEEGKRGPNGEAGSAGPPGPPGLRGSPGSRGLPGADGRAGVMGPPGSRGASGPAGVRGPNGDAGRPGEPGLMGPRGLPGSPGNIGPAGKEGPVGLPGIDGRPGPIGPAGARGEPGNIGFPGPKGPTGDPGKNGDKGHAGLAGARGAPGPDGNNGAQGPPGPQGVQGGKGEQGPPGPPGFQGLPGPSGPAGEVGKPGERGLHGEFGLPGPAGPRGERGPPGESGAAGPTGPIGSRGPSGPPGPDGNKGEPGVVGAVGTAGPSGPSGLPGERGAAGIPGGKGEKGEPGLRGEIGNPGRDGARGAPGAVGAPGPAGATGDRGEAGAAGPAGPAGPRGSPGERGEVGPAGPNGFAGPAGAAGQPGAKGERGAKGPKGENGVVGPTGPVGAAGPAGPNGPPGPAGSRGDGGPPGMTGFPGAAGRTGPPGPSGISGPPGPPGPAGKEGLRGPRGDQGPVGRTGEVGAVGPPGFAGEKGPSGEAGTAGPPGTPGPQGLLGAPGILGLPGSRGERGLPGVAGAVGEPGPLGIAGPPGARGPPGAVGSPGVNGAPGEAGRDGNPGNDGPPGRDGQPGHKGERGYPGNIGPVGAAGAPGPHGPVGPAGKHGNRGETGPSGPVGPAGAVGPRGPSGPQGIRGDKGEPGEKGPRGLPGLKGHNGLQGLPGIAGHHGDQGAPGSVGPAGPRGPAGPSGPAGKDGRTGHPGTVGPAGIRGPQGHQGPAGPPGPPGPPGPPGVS
Put plainly: dried collagen film in microtiter plate; unbound compound by ICP-MS (Gd); fit to 1 binding site. Here is the method:
(§1) Ice-cold 1×PBS pH 10.8 is added to the collagen solution for a final collagen concentration of 10 μM, pH 7.4. Collagen solutions are gelled and dried down in the wells of a 96 well microtiter plate (Corning Polystyrene Flat Bottom, cat#3641). 70 μl of 10 μM collagen is aliquoted into each well in every other lane in the plate (48 wells) and the plate is incubated at 37° C. for 18 hours to form a gel and evaporate to dryness. Ungelled collagen is removed by washing the collagen films with 200 μl 1×PBS pH 7.4 (four times, 15 min per wash). The thin collagen fibril film remains, coating the bottom of each well. After washing by PBS the plate is again dried at 37° C. for 2 hours and is stored at −20° C. The final well content of gelled collagen is measured by determination of hydroxyproline and is around 180 μg/ml.
(§2) a serial dilution of 0.2 μM-30 μM of the peptide chelate is prepared in PBS, pH 7.4 (˜300 μL of solution for each concentration). 90 μl of each concentration is also reserved in a HPLC glass vial as a sample to measure the total concentration. 140 μL of each dilution of peptide chelate is added to wells containing and non-containing collagen (control for nonspecific plastic binging). The plate is then incubated on a shaker table (300 rpm) for 2 hours at room temperature to allow the compound to bind. After 2 hours the supernatant from each well (with or without collagen) is transferred to an HPLC glass vial. The concentration of free, unbound compound in the sample supernatants and the concentration of compound in the reserved (total) sample are determined by ICP-MS (Agilent 7500, gadolinium concentration). The concentration of compound bound to collagen is determined as [bound]=[total]−[unbound].
(§3) The binding of compounds to human, rat and dog collagen (5 μM) was measured over the concentration range 0.2-5 μM of Comp ID Nos.: 1-4. The binding data was fit to a model of 1 binding site.
Usually Kd stands for the free concentration of one partner at which half of the binding sites on the other are occupied at equilibrium, for simple one-to-one binding. The low end stands for a tighter complex, the high end for a looser complex. B1: binding was characterised by a dissociation constant (Kd) of 9.6 µM.
Molecule B2 yielded a Kd of 29.8 µM.
On the same count and under the same terms, the figure for B3 is 4.9 µM; for B4 it is 3.8 µM.

Another assay concerns the target T2, rat collagen (acid soluble, type I, rat tail, Millipore Inc, cat#08-115) (rat, UniProt P02454 152-1207; P02466 86-1125).
T2 construct: In the assay the collagen was gelled and dried as a fibril film in microtiter wells; also called rat collagen type I
Described as above. Here is the method:
as §1, §2, §3
As for B1, the Kd was 4.6 µM. This lies in the single-digit micromolar range.
B3: the affinity, expressed as Kd, was 20.6 µM.
Turning to B4, the Kd worked out at 21.1 µM.

The next assay concerns the target T3, Canine collagen (Native canine Collagen Type I and III protein, YO protein AB, cat#739) (canine, UniProt Q9XSJ7 158-1214; O46392 80-1119).
T3 construct: The bought preparation is a mixture of native canine collagen types I and III, not one defined trimer; It was gelled and dried as a film in microtiter wells; also called dog collagen
The description is as above. Here is the method: as §1, §2, §3
B1 gave a Kd of 2 µM.
B3 yielded a Kd of 4.9 µM.
On the same count and under the same terms, the figure for B4 is 4.4 µM.
